Test: yeast display, Sf9 membrane polyspecificity reagent, FACS + sequencing; frameworks hold sequencing errors
Outline: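 Genes from sorted yeast were amplified by colony PCR, read by MiSeq 2 × 250 sequencing and filtered on CDR length. These cells carried a synthetic nanobody library in Saccharomyces cerevisiae BJ5465 and were sorted by FACS into low and high (top ~1%) gates on anti-HA and streptavidin fluorescence. Polyreactivity is labelled according to the gate of origin.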

Row | Sequence | polyreactivity (PSR sort gate)
1 | QVQLVESGGGLVQAGGSLRLSCAASGSIFDPYTMGWYRQAPGKERELVAAINWSGGSTYYADSVKGRCTISRDNAKNTVYLQINSLKPEDTAVSHCNADPHGYYGYGYDYWGQGTQVNVSS | low polyreactivity
2 | QVQLVESGGGLVQAGGSLRLSCAASGSIFDQYTMGWYRQAPGKARELVAAIRFSGGSTSYADSVKGRFTISRDNAKNTVYLQMISLKPEDTAVYYCNVDAITGGDWEDFDYWGQGTQVTVSS | low polyreactivity
3 | QVQLVESGGGLVQAGGSLRLSCAASGSIFDRNAMGWYRQAPGKERELVAAISRSSGNTYYADSVKGRFTISRDNAKNTVYLQMNSLKPEDTAVYYCAAKPTYPKRYNYWGQGTQVTVSS | high polyreactivity
4 | QVQLVESGGGLVQAGGSLRLSCAASGSIFDRNAMGWYRQAPGKERELVSAINSNGGITYYADSVKGRFTISRDNAKNTVYLQMNSLKPEDTAVYYCAAVIRVVYREDHCGQGTQVTVSS | low polyreactivity
5 | QVQLVESGGGLVQAGGSLRLSCAASGSIFDRYAMGWYRQAPGKERELVAAISTGGSTNYADSVKGRFTISRDNAKNSVYLQMNSLKPEDTAVYYCAARYLYRMYYWGQGTQVTVSS | low polyreactivity
6 | QVQLVESGGGLVQAGGSLRLSCAASGSIFDRYAMGWYRQAPGKERELVAAITTSGGSTSYADSVKGRYTISRDNAKNTVYLQMNSLIPEDTAVYYCAAGYDYVFAFLNEYDYWGQGTQVTVSS | low polyreactivity
7 | QVQLVESGGGLVQAGGSLRLSCAASGSIFDRYDMGWYRQAPGKERELVAVINWSGGTTYYADSVKGRFTISRDNAKNTVYLQMNSLKPEDTAVYYCAADGSKPYAMDYWGQGTQVTVSS | high polyreactivity
8 | QVQLVESGGGLVQAGGSLRLSCAASGSIFDSNAMGWYRQAPGKERELVASITSDGDTYYADSVKGRFTISRDNAKNTVYLQMNSLKPEDTAVYYCAAYVPYSGLDYWGQGTQVTVSS | low polyreactivity
9 | QVQLVESGGGLVQAGGSLRLSCAASGSIFDSNAMGWYRQAPGKERELVASITSDGDTYYADSVKGRFTISRDNAKNTVYLQMNSLKPEVTAVYYCAAYVPYSGLDYWGQGTQVTVSS | low polyreactivity
10 | QVQLVESGGGLVQAGGSLRLSCAASGSIFDSYAMGWYRQAPGKERELVAGIRWDSGSTYYADSVKGRFTISRDNAKNTVYLQINSLKPEDTAVYYCAADLFDFLLIDGFAVVTYGYWGQGTQVTVSS | low polyreactivity
11 | QVQLVESGGGLVQAGGSLRLSCAASGSIFDSYAMGWYRQAPGKEWELVAAISGNSDSTYYADSVKGRFTISRDNAKNTVYLQMNSLKPEDTAVYYCAKEGGNGYDYWGQGTQVTVSS | low polyreactivity
12 | QVQLVESGGGLVQAGGSLRLSCAASGSIFDTYVMGWYRQAPGKERELVAVISYSGTRTSYADSVKGRFTISRDNAKNTVYLQMNSLKPEDTAVYYCAARVTYYRTYRGRQYGYWGQGTQVTVSS | high polyreactivity
13 | QVQLVESGGGLVQAGGSLRLSCAASGSIFDVNAMGWYIQAPGKERELVAAISQRGTRTYYADSVKGRFTISRDNAKNTVYLQMNRLKPEDTAVYYCNRGGWRQYDSWGQGTQVTVSS | high polyreactivity
14 | QVQLVESGGGLVQAGGSLRLSCAASGSIFDVNAMGWYRQAPGKEREMVAAISDSGGSTYYADSVKGRFTISRDNAKNTVYLQMNSLKPEDTAVYYCNAVWSWYNYYDFDYWGQGSQVTVSS | low polyreactivity
15 | QVQLVESGGGLVQAGGSLRLSCAASGSIFDVNTMGWYRQAPGKERELVAAITNGYRTNYADSVKGRFTISRDNAKNTVYLQMNILKPEDTSVYYCNTDQGTTSDYCFWGQGTQVTVSS | low polyreactivity
16 | QVQLVESGGGLVQAGGSLRLSCAASGSIFDVYAMGWSRQAAGTERELVAAIDSGGSSTYYADSVKGRFTISRDNAKNSVYLQMNSLKPEDTAVYYCAARPYYSWNYDYWGQGTQVTVSS | low polyreactivity
17 | QVQLVESGGGLVQAGGSLRLSCAASGSIFDYKAMGWYRQAPGKERELFADITISDDSTYYADSVKGRFTISRDNAKNTVYLQMNSLKPEDTAVYYCAADIKYYWYYYYWAYAYDYWGHGTQVTVSS | high polyreactivity
18 | QVQLVESGGGLVQAGGSLRLSCAASGSIFDYNAMGWYRQAPGKERELVAAISSGGSTYYADSVKGRFTISRDNAKNTVYLQMNSLKPEDTEVYYCAVKVWLVIQFDYWGQGTPVTVSS | low polyreactivity
19 | QVQLVESGGGLVQAGGSLRLSCAASGSIFDYNAMGWYRQAPGKERELVAAISVSGGSTYYADSVKGRFTISRDNAKNTVYLQMNSLKPEDTAVYYCAAETWTYGWSYDYWGQGTQVTVSS | high polyreactivity
20 | QVQLVESGGGLVQAGGSLRLSCAASGSIFDYNAMGWYRQAPGKERELVAAITSTDSTYADSVKGRFTISRDNAKNTVYLQMNSLKPEDTAVYYCAAEDVIYYLTGQWREYDYWGQGTQVTVSS | low polyreactivity
21 | QVQLVESGGGLVQAGGSLRLSCAASGSIFDYNPMGWYTQAPGKERELVADITSGGSTYYADSVKGRFTISRDNAKNTVYLQMNSLKPEDTAVYYCNADDAVEYSYGGGTEFYYWGQGTQVSVSS | low polyreactivity
22 | QVQLVESGGGLVQAGGSLRLSCAASGSIFDYNTMGWYRQAPGKERELVAAISSGGSTYYADSVKGRFTISRDNAKNTVYLQMNSLKPEDTAVYYCAARRAGWWGFYYWGQGTQVTVSS | high polyreactivity

Row | Sequence | polyreactivity (PSR sort gate)
23 | QVQLVESGGGLVQAGGSLRLSCAASGSIFDYNTMGWYSQAPGKERELVAAISSGGSTYYADSVKGRFTISRDNAKTTVYLQMKSLKPEDTAVYYCAARRAGWWGFYYWGQGTQVTVSS | high polyreactivity
24 | QVQLVESGGGLVQAGGSLRLSCAASGSIFDYNVMGWSRQAPGKERELVAAITYNDGSTYYGDSVKGRFTISRDYAKNTVYLQMNSLKPEDTAVYYCNAEQTPSGLYDYRGVEGEMGYWGQGTQVTVSS | low polyreactivity
25 | QVQLVESGGGLVQAGGSLRLSCAASGSIFDYYAMGWYRQAPGKERELVAAIDSGDITYYADSVKGRFTISRDNAKNTFYLQMNRLKPEDTAVYYCAAEGTGYSVGWQYGYWGQGTQVSVSS | low polyreactivity
26 | QVQLVESGGGLVQAGGSLRLSCAASGSIFDYYAMGWYRQAPGKERELVATISGGGGTTYYADSVKGRFTISRDTAKNTVYLQMNSLKPEDTAVYYCAADSLGYNYWGQGTQVTVSS | low polyreactivity
27 | QVQLVESGGGLVQAGGSLRLSCAASGSIFDYYAMGWYRQAPGKERELVATISWIGDRTYYADSVKGRFTISRDNAKNTVYLQMNSLKPEDTAVYYCATDYYEDWRGYVDYWYRPYDYWGHGTQVTVSS | high polyreactivity
28 | QVQLVESGGGLVQAGGSLRLSCAASGSIFDYYTMGWYRQAPGKERELVATIRSGDSTNYADSVKGRFTISRDNAKNPVYVQMNSLKPEDTAVYYCAADDGAYPTLYDYWGQGTQVTVSS | low polyreactivity
29 | QVQLVESGGGLVQAGGSLRLSCAASGSIFEDYAMGWYRQAPGKERELDAAIDWGDGDTYYADSVKGRFTISRDNAKNSVYLQMNSLKPEDTAVYYCAADLVGYSGDYFDEEYYWGQGTQVTVSS | high polyreactivity
30 | QVQLVESGGGLVQAGGSLRLSCAASGSIFEDYTRGWYRQAPGKERELVAAIDWSDASTFYADSVKGRFTISRDNAKNTVYLQMSLNPEDTAVYYCNVAIIFYDDDYWGQGTQVTVSS | high polyreactivity
31 | QVQLVESGGGLVQAGGSLRLSCAASGSIFEEYAMGWYRQAPGKERELVARIDESGGSTYYADSVKGRFTISRDNAKNTVYLQMNSLKPEDTAVYYCAAERYSDSWGFYSVDEGSWEMDYWGQGTQVTVSS | low polyreactivity
32 | QVQLVESGGGLVQAGGSLRLSCAASGSIFEFNTMGWYRQAPGKERELVAAISSADTTNYADSVKGRFTISRDNAKNTVYLQMNSLKPEDTAVYYCNKELHLSATLRVLGFDYWGQGTQVTVSS | low polyreactivity
33 | QVQLVESGGGLVQAGGSLRLSCAASGSIFEGNAMGWYRQAPGKERELVAAISTTGGITYYADSVKGRFTISRDKAKNTVYLQMNSLKPEDTAVYYCAADPSQPRIDSSNYDYWGQGTQVTVSS | low polyreactivity
34 | QVQLVESGGGLVQAGGSLRLSCAASGSIFEIYAMGWYRQAPGKERELVAAISWSGGRTYYADSVKGRFTISRDNAKNTVYLQMNSLKPEDTAVYYCNAGQWRYPGLYYYWGQGTEVTVSS | high polyreactivity
35 | QVQLVESGGGLVQAGGSLRLSCAASGSIFEIYDMGWYRQAPGKERELVASIRTSGGSTYYADSVKGRFTISRDNAKNTVYLQMNSLKPEDTAVYYCATGWSWYHPDYDYWGQGTQVTVSS | low polyreactivity
36 | QVQLVESGGGLVQAGGSLRLSCAASGSIFENNAMGWYRQAPGKERELVAAISSDDTTNYADSVKGRFTISRDNAKNTVYLQMNSLKPEDTAVYYCATDYDVYGYPYDYGYWGQGTQVTVSS | low polyreactivity
37 | QVQLVESGGGLVQAGGSLRLSCAASGSIFENNAMGWYRQAPGKERELVAAISSDDTTNYADSVKGRFTISRDNAKNTVYLQMNSLKPEDTAVYYCATDYYVYGYPYDYGYWGQGTQVTVSS | low polyreactivity
38 | QVQLVESGGGLVQAGGSLRLSCAASGSIFENNVMGWYRQAPGKERELVAVISWNGGRTYYADSVKGRFTISRDNAKNTVYLQMNSLKPEDTAVYYCNAQGYFWSESIEYDYWGQGTQVTVSS | low polyreactivity
39 | QVQLVESGGGLVQAGGSLRLSCAASGSIFEPNAMGRYRQAPGKEREFVAAISGSGGSTYYADSVKGRFTISRDNAKNTVYLQMNSLKPEDTAVYYCATRGKRSYFRTFYYWGEGTQVTVSS | high polyreactivity
40 | QVQLVESGGGLVQAGGSLRLSCAASGSIFEPYAMGWYRQAPGKERELVAAIRVSGGSTYYADSVKGRFTISRDNAKNTVYLQMNSLKPEDTAVYYCAADWWSRYYYWGQGTQVTVSS | high polyreactivity
41 | QVQLVESGGGLVQAGGSLRLSCAASGSIFEPYTMGWYRQAPGKERELVAAITGSGGSTFYADSVKGRFTISRDNAKNTVYLQMNSLKPEDTAVDYCNAYAYPYTDVDYWGQGTQVTVSS | low polyreactivity
42 | QVQLVESGGGLVQAGGSLRLSCAASGSIFEPYVMGWYRQAPGKERELVAAIRQTGGSTYYADSVKGRFTISRDNAKNTVYLQMNSLKPEDTAVYYCNAEQNPSGLYDYRGVEGEMGYWGQGTQVTVSS | low polyreactivity
43 | QVQLVESGGGLVQAGGSLRLSCAASGSIFEQYTMGWYRQAPGKERELVAAISRRSGRTYYADSVKGRFTISRDNAKNTVYLQMNRLKPEDTAVYYCNTVYYGNFYSTRYDYWGQGTQVTVSS | high polyreactivity

Reference: the nanobody polyreactivity screen of Harvey et al. (2022)
